One block for each sequence: values may come before it.
What was measured:
[1] = target: HLA-A*25:01; assay: IEDB peptide-MHC binding, purified MHC/competitive/fluorescence; filed as Kd, often an IC50 or EC50 that approximates it; ≥ and ≤ were set here for values at or beyond the usual limits of such assays; details: source organism: Homo sapiens
[2] = target: HLA-B*46:01; assay: as above
[3] = target: HLA-B*51:01; assay: as above
[4] = target: HLA-A*26:01; assay: as above
[5] = target: HLA-B*15:17; assay: as above
[6] = target: HLA-B*57:01; assay: as above
[7] = target: HLA-B*27:03; assay: as above
[8] = target: HLA-B*15:01; assay: as above
[9] = target: HLA-A*80:01; assay: as above; details: source organism: Homo sapiens
[10] = target: HLA-B*18:01; assay: as above
[11] = target: HLA-A*02:01; assay: IEDB peptide-MHC binding, purified MHC/direct/fluorescence; filed as Kd, often an IC50 or EC50 that approximates it; ≥ and ≤ were set here for values at or beyond the usual limits of such assays; details: source organism: Homo sapiens
[12] = target: HLA-A*29:02; assay: IEDB peptide-MHC binding, purified MHC/competitive/fluorescence; filed as Kd, often an IC50 or EC50 that approximates it; ≥ and ≤ were set here for values at or beyond the usual limits of such assays; details: source organism: Campylobacter jejuni subsp. jejuni NCTC 11168 = ATCC 700819
[13] = target: HLA-A*23:01; assay: as above; details: source organism: Campylobacter jejuni subsp. jejuni NCTC 11168 = ATCC 700819
[14] = target: HLA-A*24:03; assay: as above; details: source organism: Campylobacter jejuni subsp. jejuni NCTC 11168 = ATCC 700819
[15] = target: HLA-A*69:01; assay: as above; details: source organism: Campylobacter jejuni subsp. jejuni NCTC 11168 = ATCC 700819
[16] = target: HLA-A*02:03; assay: as above; details: source organism: Campylobacter jejuni subsp. jejuni NCTC 11168 = ATCC 700819
[17] = target: HLA-A*02:01; assay: as above; details: source organism: Campylobacter jejuni subsp. jejuni NCTC 11168 = ATCC 700819
[18] = target: HLA-A*03:01; assay: as above; details: source organism: Campylobacter jejuni subsp. jejuni NCTC 11168 = ATCC 700819
[19] = target: HLA-A*68:02; assay: as above; details: source organism: Campylobacter jejuni subsp. jejuni NCTC 11168 = ATCC 700819
[20] = target: HLA-A*02:19; assay: as above; details: source organism: Campylobacter jejuni subsp. jejuni NCTC 11168 = ATCC 700819
[21] = target: HLA-B*39:01; assay: as above; details: source organism: Campylobacter jejuni subsp. jejuni NCTC 11168 = ATCC 700819
[22] = target: HLA-A*02:11; assay: as above; details: source organism: Campylobacter jejuni subsp. jejuni NCTC 11168 = ATCC 700819
[23] = target: HLA-A*02:16; assay: as above; details: source organism: Campylobacter jejuni subsp. jejuni NCTC 11168 = ATCC 700819
[24] = target: HLA-A*02:12; assay: as above; details: source organism: Campylobacter jejuni subsp. jejuni NCTC 11168 = ATCC 700819
[25] = target: HLA-B*58:01; assay: IEDB peptide-MHC binding, purified MHC/competitive/fluorescence; ≥ and ≤ were set here for values at or beyond the usual limits of such assays; details: source organism: Monodelphis domestica
[26] = target: HLA-A*29:02; assay: as above; details: source organism: Monodelphis domestica
[27] = target: HLA-A*25:01; assay: as above; details: source organism: Monodelphis domestica
[28] = target: HLA-B*08:01; assay: as above; details: source organism: Monodelphis domestica
[29] = target: HLA-A*01:01; assay: as above; details: source organism: Monodelphis domestica
[30] = target: HLA-B*40:02; assay: as above; details: source organism: Monodelphis domestica
[31] = target: HLA-B*51:01; assay: as above; details: source organism: Monodelphis domestica
[32] = target: HLA-A*02:01; assay: as above; details: source organism: Monodelphis domestica
[33] = target: HLA-B*44:03; assay: as above; details: source organism: Monodelphis domestica
[34] = target: HLA-A*03:01; assay: as above; details: source organism: Monodelphis domestica
[35] = target: HLA-B*37:01; assay: as above; details: source organism: Monodelphis domestica
[36] = target: HLA-A*68:02; assay: as above; details: source organism: Monodelphis domestica
[37] = target: HLA-B*14:02; assay: as above; details: source organism: Monodelphis domestica
[38] = target: HLA-A*11:01; assay: as above; details: source organism: Monodelphis domestica
[39] = target: HLA-A*31:01; assay: as above; details: source organism: Monodelphis domestica
[40] = target: HLA-B*07:02; assay: as above; details: source organism: Monodelphis domestica
[41] = target: HLA-B*53:01; assay: as above; details: source organism: Monodelphis domestica
[42] = target: HLA-B*35:01; assay: as above; details: source organism: Monodelphis domestica
[43] = target: HLA-A*24:02; assay: as above; details: source organism: Monodelphis domestica
[44] = target: HLA-B*18:01; assay: as above; details: source organism: Monodelphis domestica
[45] = target: HLA-B*58:01; assay: IEDB peptide-MHC binding, cellular MHC/competitive/fluorescence; ≥ and ≤ were set here for values at or beyond the usual limits of such assays; details: source organism: Human herpesvirus 4 strain B95-8
[46] = target: HLA-A*25:01; assay: IEDB peptide-MHC binding, purified MHC/direct/fluorescence; filed as Kd, often an IC50 or EC50 that approximates it; ≥ and ≤ were set here for values at or beyond the usual limits of such assays; details: source organism: Cryptosporidium parvum Iowa II
[47] = target: HLA-B*46:01; assay: as above; details: source organism: Cryptosporidium parvum Iowa II
[48] = target: HLA-A*26:01; assay: as above; details: source organism: Cryptosporidium parvum Iowa II
[49] = target: HLA-A*03:01; assay: as above; details: source organism: Cryptosporidium parvum Iowa II
[50] = target: HLA-B*15:17; assay: as above; details: source organism: Cryptosporidium parvum Iowa II
[51] = target: HLA-A*80:01; assay: as above; details: source organism: Cryptosporidium parvum Iowa II
[52] = target: HLA-B*18:01; assay: as above; details: source organism: Cryptosporidium parvum Iowa II
[53] = source organism: Campylobacter jejuni subsp. jejuni NCTC 11168 = ATCC 700819

Sequence: HLLCQAFSV
Kd [1]: ≥ 20 µM
Kd ([2]; source organism: Homo sapiens): ≥ 20 µM
Kd ([3]; source organism: Homo sapiens): ≥ 20 µM
Kd ([4]; source organism: Homo sapiens): ≥ 20 µM
Kd ([5]; source organism: Homo sapiens): ≥ 20 µM
Kd ([6]; source organism: Homo sapiens): ≥ 20 µM
Kd ([7]; source organism: Homo sapiens): ≥ 20 µM
Kd ([8]; source organism: Homo sapiens): ≥ 20 µM
Kd [9]: ≥ 20 µM
Kd ([10]; source organism: Homo sapiens): ≥ 20 µM
Kd [11]: 0.0002 µM

Sequence: LELAEITAE
Kd [12]: ≥ 20 µM
Kd [13]: ≥ 20 µM
Kd [14]: ≥ 20 µM
Kd [2, 53]: ≥ 20 µM
Kd [15]: ≥ 20 µM
Kd [3, 53]: ≥ 20 µM
Kd [16]: ≥ 20 µM
Kd [17]: ≥ 20 µM
Kd [4, 53]: ≥ 20 µM
Kd [18]: ≥ 20 µM
Kd [19]: ≥ 20 µM
Kd [5, 53]: ≥ 20 µM
Kd [6, 53]: ≥ 20 µM
Kd [20]: ≥ 20 µM
Kd [21]: ≥ 20 µM
Kd [22]: ≥ 20 µM
Kd [7, 53]: ≥ 20 µM
Kd [8, 53]: ≥ 20 µM
Kd [10, 53]: 0.511 µM
Kd [23]: ≥ 20 µM
Kd [24]: ≥ 20 µM

IC50 [25]: ≥ 20 µM
IC50 [26]: ≥ 20 µM
IC50 [27]: ≥ 20 µM
IC50 [28]: 2.4 µM
IC50 [29]: ≥ 20 µM
IC50 [30]: 0.126 µM
IC50 [31]: ≥ 20 µM
IC50 [32]: ≥ 20 µM
IC50 [33]: ≥ 20 µM
IC50 [34]: ≥ 20 µM
IC50 [35]: ≥ 20 µM
IC50 [36]: ≥ 20 µM
IC50 [37]: ≥ 20 µM
IC50 [38]: ≥ 20 µM
IC50 [39]: ≥ 20 µM
IC50 [40]: ≥ 20 µM
IC50 [41]: ≥ 20 µM
IC50 [42]: ≥ 20 µM
IC50 [43]: ≥ 20 µM
IC50 [44]: 4.72 µM
Sequence: LEYFQFVKKLL

Sequence: NAAEPEQPW
IC50 [45]: 5 µM

Sequence: RAIMTTWTV
Kd [46]: ≥ 20 µM
Kd [47]: ≥ 20 µM
Kd [48]: ≥ 20 µM
Kd [49]: ≥ 20 µM
Kd [50]: 0.06 µM
Kd [51]: ≥ 20 µM
Kd [52]: ≥ 20 µM

From the Immune Epitope Database (IEDB)
